{"source": "paper PMC5016229", "biological_target": "RSV F DS-Cav1 (human respiratory syncytial virus | bacteriophage T4) (UniProt P03420)", "assay": "SEC", "data": [{"substance": "RSV F DS-Cav1 (from UniProt P03420 26-109; P03420 137-513) (domain or fragment)", "values": [{"measurement": "stoichiometry N", "value": 3}]}]}
